Protein stability index data for 94 variants are collected here from the supplement of paper PMC10567573.

To fix the notation:
B1: C10orf62 (parent)
chain: MLWVQRKRRRKETSECPSDKDKSP
B2: HNF4A (parent)
chain: RFSRQCVVDKDKRNQCRYCRLKKC
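Also: lentivirally expressed fusions sorted by FACS into six bins by GFP to DsRed ratio, PSI derived from sequencing read proportions per bin multiplied by bin number.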

The variants in the first series derive from B1. In words: protein stability index of a GFP-peptide fusion (GPS, HEK-293T) (PSI 1-6); higher = more stable. Particulars: c terminus: a fixed tail appended.
As for MLWVDRKRRRKETSECPSDKDKSP [Q5D], the protein stability index was 4.23.

Consider MLWVLRKRRRKETSECPSDKDKSP [Q5L], for which the protein stability index was 2.4.

With MLWVCRKRRRKETSECPSDKDKSP [Q5C], the protein stability index is 2.61.

Regarding MLWVSRKRRRKETSECPSDKDKSP [Q5S], the protein stability index was 3.85.

For MLWVMRKRRRKETSECPSDKDKSP [Q5M], the protein stability index came to 2.62.

Take MLWVNRKRRRKETSECPSDKDKSP [Q5N]: the protein stability index turned out to be 3.44.

Consider MLWVFRKRRRKETSECPSDKDKSP [Q5F], for which the protein stability index is 2.67.

Consider MLWVIRKRRRKETSECPSDKDKSP [Q5I], for which the protein stability index amounted to 2.21.

Regarding MLWVARKRRRKETSECPSDKDKSP [Q5A], the protein stability index is 3.98.

Take MLWVWRKRRRKETSECPSDKDKSP [Q5W]: the protein stability index is 1.93.

Regarding MLWVPRKRRRKETSECPSDKDKSP [Q5P], the protein stability index stood at 3.11.

Regarding MLWVYRKRRRKETSECPSDKDKSP [Q5Y], the protein stability index is 2.8.

Consider MLWVKRKRRRKETSECPSDKDKSP [Q5K], for which the protein stability index is 4.1.

In the case of MLWVHRKRRRKETSECPSDKDKSP [Q5H], the protein stability index turned out to be 2.97.

With MLKVQRKRRRKETSECPSDKDKSP [W3K], the protein stability index worked out at 4.18.

In the case of MLQVQRKRRRKETSECPSDKDKSP [W3Q], the protein stability index is 3.13.

As to MLTVQRKRRRKETSECPSDKDKSP [W3T], the protein stability index was determined as 4.73.

For the variant MLMVQRKRRRKETSECPSDKDKSP [W3M], the protein stability index was determined as 3.46.

Turning to MLYVQRKRRRKETSECPSDKDKSP [W3Y], the protein stability index is 2.77.

For the variant MLFVQRKRRRKETSECPSDKDKSP [W3F], the protein stability index was 3.25.

Consider MLNVQRKRRRKETSECPSDKDKSP [W3N], for which the protein stability index amounted to 4.66.

For MLRVQRKRRRKETSECPSDKDKSP [W3R], the protein stability index was 4.46.

As to MLSVQRKRRRKETSECPSDKDKSP [W3S], the protein stability index turned out to be 4.87.

For the variant MLLVQRKRRRKETSECPSDKDKSP [W3L], the protein stability index worked out at 3.73.

For the variant MLIVQRKRRRKETSECPSDKDKSP [W3I], the protein stability index was determined as 3.25.

With MLCVQRKRRRKETSECPSDKDKSP [W3C], the protein stability index stood at 4.07.

In the case of MLHVQRKRRRKETSECPSDKDKSP [W3H], the protein stability index is 4.31.

Consider MLPVQRKRRRKETSECPSDKDKSP [W3P], for which the protein stability index was 5.09.

For MLAVQRKRRRKETSECPSDKDKSP [W3A], the protein stability index was found to be 4.3.

As to MLDVQRKRRRKETSECPSDKDKSP [W3D], the protein stability index worked out at 4.99.

Consider ILWVQRKRRRKETSECPSDKDKSP [M1I], for which the protein stability index was determined as 1.24.

With RLWVQRKRRRKETSECPSDKDKSP [M1R], the protein stability index was determined as 2.59.

CLWVQRKRRRKETSECPSDKDKSP [M1C]: the protein stability index was 3.06.

As to VLWVQRKRRRKETSECPSDKDKSP [M1V], the protein stability index came to 3.29.

PLWVQRKRRRKETSECPSDKDKSP [M1P]: the protein stability index was 2.83.

On to HLWVQRKRRRKETSECPSDKDKSP [M1H], for which the protein stability index came out at 3.73.

For FLWVQRKRRRKETSECPSDKDKSP [M1F], the protein stability index worked out at 2.98.

For the variant WLWVQRKRRRKETSECPSDKDKSP [M1W], the protein stability index worked out at 2.83.

In the case of GLWVQRKRRRKETSECPSDKDKSP [M1G], the protein stability index stood at 4.

As to YLWVQRKRRRKETSECPSDKDKSP [M1Y], the protein stability index is 3.4.

In the case of TLWVQRKRRRKETSECPSDKDKSP [M1T], the protein stability index was 3.65.

As to ALWVQRKRRRKETSECPSDKDKSP [M1A], the protein stability index is 2.93.

In the case of LLWVQRKRRRKETSECPSDKDKSP [M1L], the protein stability index was determined as 2.3.

As for KLWVQRKRRRKETSECPSDKDKSP [M1K], the protein stability index was 3.53.

With NLWVQRKRRRKETSECPSDKDKSP [M1N], the protein stability index stood at 4.55.

Regarding MEWVQRKRRRKETSECPSDKDKSP [L2E], the protein stability index amounted to 4.

With MTWVQRKRRRKETSECPSDKDKSP [L2T], the protein stability index amounted to 3.31.

Regarding MYWVQRKRRRKETSECPSDKDKSP [L2Y], the protein stability index is 2.41.

As to MPWVQRKRRRKETSECPSDKDKSP [L2P], the protein stability index is 4.59.

MWWVQRKRRRKETSECPSDKDKSP [L2W]: the protein stability index was found to be 2.53.

Take MVWVQRKRRRKETSECPSDKDKSP [L2V]: the protein stability index came to 2.6.

MNWVQRKRRRKETSECPSDKDKSP [L2N]: the protein stability index is 3.93.

On to MDWVQRKRRRKETSECPSDKDKSP [L2D], for which the protein stability index is 4.88.

Turning to MIWVQRKRRRKETSECPSDKDKSP [L2I], the protein stability index amounted to 3.21.

Consider MHWVQRKRRRKETSECPSDKDKSP [L2H], for which the protein stability index amounted to 3.52.

As for MKWVQRKRRRKETSECPSDKDKSP [L2K], the protein stability index is 2.98.

Turning to MAWVQRKRRRKETSECPSDKDKSP [L2A], the protein stability index was 3.92.

Regarding MCWVQRKRRRKETSECPSDKDKSP [L2C], the protein stability index was 2.87.

Turning to MMWVQRKRRRKETSECPSDKDKSP [L2M], the protein stability index is 2.89.

Take MFWVQRKRRRKETSECPSDKDKSP [L2F]: the protein stability index turned out to be 1.33.

Consider MLWIQRKRRRKETSECPSDKDKSP [V4I], for which the protein stability index is 2.87.

As for MLWFQRKRRRKETSECPSDKDKSP [V4F], the protein stability index is 2.94.

On to MLWTQRKRRRKETSECPSDKDKSP [V4T], for which the protein stability index was 2.73.

For the variant MLWYQRKRRRKETSECPSDKDKSP [V4Y], the protein stability index worked out at 2.71.

Turning to MLWPQRKRRRKETSECPSDKDKSP [V4P], the protein stability index was found to be 3.11.

As for MLWKQRKRRRKETSECPSDKDKSP [V4K], the protein stability index amounted to 3.56.

As for MLWHQRKRRRKETSECPSDKDKSP [V4H], the protein stability index worked out at 3.86.

In the case of MLWNQRKRRRKETSECPSDKDKSP [V4N], the protein stability index was found to be 3.87.

Consider MLWGQRKRRRKETSECPSDKDKSP [V4G], for which the protein stability index was determined as 3.89.

As for MLWWQRKRRRKETSECPSDKDKSP [V4W], the protein stability index was found to be 2.57.

With MLWCQRKRRRKETSECPSDKDKSP [V4C], the protein stability index is 3.91.

As to MLWAQRKRRRKETSECPSDKDKSP [V4A], the protein stability index came out at 4.6.

On to MLWMQRKRRRKETSECPSDKDKSP [V4M], for which the protein stability index amounted to 2.52.

For MLWEQRKRRRKETSECPSDKDKSP [V4E], the protein stability index amounted to 4.56.

Regarding MLWVQFKRRRKETSECPSDKDKSP [R6F], the protein stability index came to 3.11.

MLWVQQKRRRKETSECPSDKDKSP [R6Q]: the protein stability index stood at 3.27.

For the variant MLWVQNKRRRKETSECPSDKDKSP [R6N], the protein stability index stood at 3.87.

Regarding MLWVQVKRRRKETSECPSDKDKSP [R6V], the protein stability index is 2.95.

MLWVQKKRRRKETSECPSDKDKSP [R6K]: the protein stability index amounted to 3.13.

Turning to MLWVQDKRRRKETSECPSDKDKSP [R6D], the protein stability index was 3.9.

With MLWVQCKRRRKETSECPSDKDKSP [R6C], the protein stability index was determined as 2.27.

As for MLWVQLKRRRKETSECPSDKDKSP [R6L], the protein stability index was 3.11.

In the case of MLWVQTKRRRKETSECPSDKDKSP [R6T], the protein stability index came to 3.13.

For MLWVQGKRRRKETSECPSDKDKSP [R6G], the protein stability index is 3.54.

On to MLWVQIKRRRKETSECPSDKDKSP [R6I], for which the protein stability index amounted to 3.21.

With MLWVQMKRRRKETSECPSDKDKSP [R6M], the protein stability index turned out to be 3.49.

On to MLWVQEKRRRKETSECPSDKDKSP [R6E], for which the protein stability index was 4.01.

Take MLWVQWKRRRKETSECPSDKDKSP [R6W]: the protein stability index came to 3.21.

On to MLWVQHKRRRKETSECPSDKDKSP [R6H], for which the protein stability index came out at 2.88.

On to MLWVQSKRRRKETSECPSDKDKSP [R6S], for which the protein stability index was 3.42.

A further series covers variants of B2. The description is as above. Particulars: c terminus: a fixed tail appended.
As for RFSRQCVVDKDKRNQCRNCRLKKC [Y18N], the protein stability index came out at 3.78.

Turning to RFSRQCVVDKDKRNQCRQCRLKKC [Y18Q], the protein stability index amounted to 3.54.

RFSRQCVVDKDKRNQCRKCRLKKC [Y18K]: the protein stability index stood at 3.73.

Consider RFSRQCVVDKDKRNQRRYCRLKKC [C16R], for which the protein stability index came to 4.33.
